Experiment in all cases: bimolecular fluorescence complementation (BiFC), quantitative imaging of nuclear Venus fluorescence in cells
One test has as its target VN-Impα2 (UniProt P52293). The following applies: 18 h post-transfection, mean ± SEM, three independent experiments, parent: est. 1.0, read off a plot.
In a further test the target is VN-CIC (UniProt Q96RK0). Conditions: 18 h post-transfection; n = 258 (85Q) and 201 (mVS) nuclei; mean ± SEM, three independent experiments; parent: est. 1.0; read off a plot.
The next test has as its target VC-ataxin-1[85Q] (UniProt P54253). The following applies: 18 h post-transfection; n = 155 (wild-type Impα2) and 131 (mDE) nuclei; mean ± SEM, three independent experiments; parent: est. 1.0; read off a plot.

From article PMC7334205 come the findings set out here.

Chain of UniProt Q96RK0 (Q96RK0 whole entry): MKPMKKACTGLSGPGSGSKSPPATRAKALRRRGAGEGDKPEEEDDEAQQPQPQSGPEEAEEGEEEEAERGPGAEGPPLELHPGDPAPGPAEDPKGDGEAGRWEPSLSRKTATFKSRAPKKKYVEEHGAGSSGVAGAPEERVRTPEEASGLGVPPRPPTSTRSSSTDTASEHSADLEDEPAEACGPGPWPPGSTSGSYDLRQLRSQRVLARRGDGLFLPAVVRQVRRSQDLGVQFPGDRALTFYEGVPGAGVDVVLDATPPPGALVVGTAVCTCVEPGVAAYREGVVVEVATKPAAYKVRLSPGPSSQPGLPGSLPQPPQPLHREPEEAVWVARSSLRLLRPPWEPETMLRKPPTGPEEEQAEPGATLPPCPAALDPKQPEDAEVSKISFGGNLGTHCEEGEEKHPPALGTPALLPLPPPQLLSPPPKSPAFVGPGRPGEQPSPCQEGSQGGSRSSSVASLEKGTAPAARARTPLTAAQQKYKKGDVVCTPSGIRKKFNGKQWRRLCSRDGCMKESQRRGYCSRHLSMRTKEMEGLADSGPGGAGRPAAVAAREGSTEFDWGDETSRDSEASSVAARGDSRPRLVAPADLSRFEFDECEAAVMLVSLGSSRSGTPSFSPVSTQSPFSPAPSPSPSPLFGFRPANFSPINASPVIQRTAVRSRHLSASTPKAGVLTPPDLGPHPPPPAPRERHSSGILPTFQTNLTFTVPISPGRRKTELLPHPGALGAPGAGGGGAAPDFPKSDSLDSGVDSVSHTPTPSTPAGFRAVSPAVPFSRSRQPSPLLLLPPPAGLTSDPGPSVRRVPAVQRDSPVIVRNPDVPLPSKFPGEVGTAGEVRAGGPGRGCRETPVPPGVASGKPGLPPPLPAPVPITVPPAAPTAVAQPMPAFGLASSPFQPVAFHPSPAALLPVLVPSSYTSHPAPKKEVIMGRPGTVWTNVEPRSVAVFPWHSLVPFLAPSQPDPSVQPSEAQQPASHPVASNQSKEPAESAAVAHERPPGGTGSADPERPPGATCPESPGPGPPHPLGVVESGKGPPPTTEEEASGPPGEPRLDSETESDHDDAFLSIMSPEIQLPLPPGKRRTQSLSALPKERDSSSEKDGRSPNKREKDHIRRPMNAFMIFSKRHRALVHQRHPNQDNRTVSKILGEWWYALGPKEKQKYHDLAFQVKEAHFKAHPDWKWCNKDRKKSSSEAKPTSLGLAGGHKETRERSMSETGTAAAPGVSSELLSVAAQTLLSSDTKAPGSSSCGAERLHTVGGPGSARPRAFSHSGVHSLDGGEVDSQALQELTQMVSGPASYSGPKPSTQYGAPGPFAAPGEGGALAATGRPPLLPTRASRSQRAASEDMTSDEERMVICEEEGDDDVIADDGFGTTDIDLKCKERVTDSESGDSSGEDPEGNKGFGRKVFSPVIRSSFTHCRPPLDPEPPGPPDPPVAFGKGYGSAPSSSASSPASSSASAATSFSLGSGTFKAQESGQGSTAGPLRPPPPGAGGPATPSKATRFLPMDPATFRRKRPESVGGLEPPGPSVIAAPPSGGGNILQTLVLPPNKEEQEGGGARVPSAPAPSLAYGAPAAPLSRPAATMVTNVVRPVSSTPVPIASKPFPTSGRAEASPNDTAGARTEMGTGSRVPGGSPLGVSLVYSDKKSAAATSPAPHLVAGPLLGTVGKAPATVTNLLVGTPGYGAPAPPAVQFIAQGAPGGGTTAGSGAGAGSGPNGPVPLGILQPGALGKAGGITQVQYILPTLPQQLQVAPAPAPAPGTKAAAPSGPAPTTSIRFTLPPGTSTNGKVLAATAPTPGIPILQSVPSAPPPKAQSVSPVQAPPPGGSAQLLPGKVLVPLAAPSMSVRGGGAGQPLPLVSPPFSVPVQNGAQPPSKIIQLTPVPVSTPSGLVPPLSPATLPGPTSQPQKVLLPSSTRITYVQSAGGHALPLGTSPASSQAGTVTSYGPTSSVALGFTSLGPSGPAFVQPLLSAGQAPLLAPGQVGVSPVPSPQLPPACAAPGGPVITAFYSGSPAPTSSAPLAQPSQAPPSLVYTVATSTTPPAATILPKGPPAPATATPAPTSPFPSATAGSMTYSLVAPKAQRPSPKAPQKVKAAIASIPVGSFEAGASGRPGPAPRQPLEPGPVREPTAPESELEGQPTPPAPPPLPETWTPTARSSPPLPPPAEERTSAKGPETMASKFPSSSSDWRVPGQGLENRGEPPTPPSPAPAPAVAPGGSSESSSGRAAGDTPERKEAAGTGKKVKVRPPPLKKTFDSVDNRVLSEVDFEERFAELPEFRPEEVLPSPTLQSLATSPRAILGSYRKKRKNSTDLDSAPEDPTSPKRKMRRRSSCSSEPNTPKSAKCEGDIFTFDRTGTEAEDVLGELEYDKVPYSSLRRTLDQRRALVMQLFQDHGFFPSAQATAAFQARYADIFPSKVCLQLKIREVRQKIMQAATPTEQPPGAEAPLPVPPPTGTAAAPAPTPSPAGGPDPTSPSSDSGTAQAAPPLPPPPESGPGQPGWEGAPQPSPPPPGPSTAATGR

With “VC-ataxin-1[85Q] (from UniProt P54253) K772T”, the ratio to parent in the test with VN-Impα2 (n = 155 (85Q) and 172 (K772T) nuclei) was 0.55.
In the case of “VC-ataxin-1[85Q] (from UniProt P54253) V591A; S602D”, the ratio to parent with VN-Impα2 (n = 101 and 101 nuclei) was found to be 0.72; with VN-CIC, 0.47.
As to “VN-Impα2 (from UniProt P52293) D192K; E396R”, the ratio to parent with VC-ataxin-1[85Q] worked out at 0.75.
